# ± gives the standard deviation of the averaged measurements.
# Test system: ATP
# Assay: switch fluorescence ratio, 500 uM ATP over buffer (Cy3 cluster intensity, sum of 5 cycles each) (fold (ratio)); higher = stronger signal-on switching upon ATP binding; sequences stand for … in TCGTCGGCAGCGTCAGATGTGTATAAGAGACAGTTTTTTTTTTTTTTTTTTTTTTTTT…TC
# Conditions: aptamer strand: ATP DNA aptamer (quencher-CACCTGGGGGAGTATTGCGGAGGAAGG + anchor), 100 nM annealed; ATP concentration: 500 uM
# Procedure, shortened: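 For every switch-domain sequence, the fluorescence ratio is the mean of per-cluster values, each being summed target-cycle Cy3 intensity over summed buffer-cycle Cy3 intensity. Clusters outside 100-1000 RFU were excluded. On a modified Illumina MiSeq flow-cell, the Cy3-labelled switching-strand clusters were annealed to 100 nM quencher-labelled ATP aptamer, imaged in selection buffer and then after 15 min with 500 uM ATP at 22 °C. Five such cycles were run, with NaOH stripping and re-annealing between them.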
# 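Also: ATP exposure 15 min at 22 °C before imaging.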
row,Sequence,switch fluorescence ratio
1,GTCCGGATGG,1.02 ± 0.011
2,ATCCAGACGG,1.04 ± 0.026
3,TGGGGGGGG,1.01 ± 0.05
4,GGTCGGTTGG,0.97591 ± 0.00041
5,TTTGCCGGAG,1.08 ± 0.065
6,CGATCGTAAT,2.1 ± 0.036
7,GATATGGATT,0.977 ± 0.016
8,GTGGGTTACT,1.02 ± 0.021
9,ATATAGAATA,1.03 ± 0.024
10,AGCTTATTGC,0.977 ± 0.015
11,AGGTTGTTAA,1.0085 ± 0.0005
12,CGCATGATGT,1.03 ± 0.018
13,CGTTTGGCCC,0.988 ± 0.044
14,GCTCTATTAT,1.11 ± 0.16
15,CTTTGGTTGA,0.995 ± 0.031
16,AATAAAGACG,0.952 ± 0.025
17,GCGACGGGGA,1.08 ± 0.021
18,GGCTATTAAA,1.01 ± 0.011
19,ACAGATTAGT,1 ± 0.024
20,AACAGGATCG,1.01 ± 0.053
21,TTTAGGTGTT,1.05 ± 0.074
22,AATCGGGCGT,0.982 ± 0.052
23,AGGCTATGTA,0.9998 ± 0.0042
24,ATCTCCGGGG,1.04 ± 0.016
25,AGCTGATGG,1.0343 ± 0.00071
26,TTGTGGGATA,1.01 ± 0.011

row,Sequence,switch fluorescence ratio
1,TTTGACGG,0.972 ± 0.023
2,GGATTATGTA,0.999 ± 0.026
3,ATTTAGGTTA,0.989 ± 0.021
4,TTAGTCTGTT,0.99 ± 0.022
5,AATGTTTGTA,0.9936 ± 0.0094
6,AACCGGATCG,1.034 ± 0.01
7,GAGCTAGGGA,1.011 ± 0.0013
8,TTAAGTCATT,0.986 ± 0.039
9,TTACAAGGTT,1.02 ± 0.013
10,ACTAAAAAAA,0.991 ± 0.025
11,TTCGGGCGAT,1.01 ± 0.013
12,CCGGATCGGC,1.04 ± 0.029
13,TGGGAATAGG,0.993 ± 0.019
14,TTTTCCTGAT,1 ± 0.017
15,AAAGTGTTGT,0.979 ± 0.039
16,ATAATTCGGG,1 ± 0.049
17,GAGGCTTGGG,0.99 ± 0.011
18,CAGTTGTGTG,0.994 ± 0.034
19,GATGTGGGCA,1.05 ± 0.026
20,TGGAGGGGGT,1.09 ± 0.28
21,GAAATGGCAA,1.03 ± 0.051
22,GACATTGTGT,0.98604 ± 0.00074
23,GGCCGACAGC,1.03 ± 0.032
24,TGGTAGGAGA,0.979 ± 0.013
25,TATCTAGAGG,1.01 ± 0.022
26,TGGGATTTCA,0.979 ± 0.045

row,Sequence,switch fluorescence ratio
1,GGATGGTAGC,1.01 ± 0.013
2,GATTATGGCG,1.047 ± 0.0054
3,TTAAGGACGG,0.994 ± 0.065
4,TATATGGTGG,1.02 ± 0.056
5,ATGACGCTGG,1.03 ± 0.13
6,GAAGATGGTG,0.963 ± 0.037
7,GGATTAATTG,0.996 ± 0.037
8,ATTTTTTGG,0.997 ± 0.017
9,CTATCAACCG,1.04 ± 0.022
10,ATGTTCATGG,0.99 ± 0.043
11,CCAAGCGCTG,1.06 ± 0.03
12,TAGGAGGGGT,0.999 ± 0.022
13,GGGTTTATCT,0.986 ± 0.039
14,TCTCAGTCCA,1.02 ± 0.039
15,TCCGGTGACG,0.968 ± 0.033
16,TTTAAAAAAG,1.02 ± 0.028
17,TACTGGGGAC,1.03 ± 0.035
18,GTTATAGTCG,0.999 ± 0.05
19,ACTAGAAGGG,0.9833 ± 0.0037
20,CGGACGGAAG,1.01 ± 0.0078
21,TTTTGGTAGT,1.03 ± 0.063
22,ATAAGGATCT,1.03 ± 0.016
23,TAACGGTTTT,1.01 ± 0.033
24,GAAGGAGGGT,0.9731 ± 0.0064
25,ACGGAGCCTT,1.32 ± 0.036
26,TTGTGTTGG,1.03 ± 0.019

row,Sequence,switch fluorescence ratio
1,CGAGTTGGTA,1.01 ± 0.025
2,ATAAAAAGGT,0.987 ± 0.013
3,GGATGAAACT,1.012 ± 0.0044
4,GTATGCTTGG,0.9959 ± 0.0042
5,AATTTTACGG,1.07 ± 0.024
6,ACATTTTTAT,1.03 ± 0.015
7,CAAATATGAG,0.972 ± 0.033
8,AGGGTAGCGA,1.03 ± 0.017
9,AAAGTGTTTG,1.02 ± 0.016
10,AAGGTGTTTC,1.083 ± 0.0066
11,CTTGTATGGG,1.01 ± 0.029
12,TTAATTATGA,0.991 ± 0.012
13,GACGCCGGGT,1.03 ± 0.02
14,GCATCACGAG,1.08 ± 0.03
15,TTAGTGTAAT,1.01 ± 0.025
16,CGGGTGACTC,1.02 ± 0.012
17,ACTCTACTTG,1.42 ± 0.16
18,GGTGTGGCGC,0.955 ± 0.0063
19,GGCGGGTAAT,1.04 ± 0.09
20,AGCCACGCGT,1.01 ± 0.012
21,AGTAGGTTAG,0.989 ± 0.04
22,CGGTCGGGAT,0.9606 ± 0.0031
23,TTATCTAGTT,1 ± 0.054
24,GAACTTGTCT,1.02 ± 0.036
25,TTGTATAGGG,1 ± 0.025
26,GATATTTCGT,0.9768 ± 0.0034

row,Sequence,switch fluorescence ratio
1,TAAATTGTCG,0.994 ± 0.053
2,GATGTTGTAC,1.09 ± 0.079
3,CGGGGGTTAG,0.999 ± 0.033
4,TCACGGTTGC,1.04 ± 0.016
5,TCTTATAATT,1.01 ± 0.011
6,TTTTTGGCTT,1.02 ± 0.093
7,TGCCATCCGA,1.09 ± 0.054
8,AATGTAAGTT,0.975 ± 0.025
9,TATGTTTAAA,0.9922 ± 0.0042
10,GCCGTATGCT,0.9859 ± 0.0092
11,AAGGGATTTA,1.04 ± 0.034
12,AGAAATGTTA,1.024 ± 0.0063
13,TGATGATTTT,0.945 ± 0.017
14,ATTCTTTACG,1.03 ± 0.015
15,TCAGGGTGGG,1 ± 0.029
16,TTGCAGTAGC,1.05 ± 0.033
17,TTAAGTGATT,0.999 ± 0.025
18,TAAGGAATGA,0.993 ± 0.019
19,GCACATGAAC,1.1 ± 0.022
20,TTGTTGGGCC,1.01 ± 0.036
21,GAGTTGTTAT,0.973 ± 0.037
22,ACTATTATTC,1.05 ± 0.034
23,TGTTGGGATG,1.01 ± 0.02
24,TTTCAGTTTC,1.02 ± 0.043
25,GCTTGAATTT,0.984 ± 0.02
26,CCAGGCATGT,1.05 ± 0.012

row,Sequence,switch fluorescence ratio
1,TAGATGCGGT,1.01 ± 0.032
2,GGGTATGGAG,1.02 ± 0.02
3,TCATAAGGCG,0.986 ± 0.046
4,CCAAAAGGAT,1.01 ± 0.012
5,AGACGGGGCT,0.975 ± 0.017
6,GAAGTGCTTT,0.995 ± 0.041
7,ACTACGGATT,1.06 ± 0.026
8,AAGCAGTACC,3.24 ± 0.72
9,GTTCCCAGTT,0.997 ± 0.017
10,TGAAAGGGAT,0.988 ± 0.077
11,TGTAGGGTAG,0.958 ± 0.017
12,GAGTCCAGGC,1.07 ± 0.16
13,TTTTGAGCTT,1.04 ± 0.081
14,AGGGAGAATT,1 ± 0.013
15,TAGTTAATCG,0.968 ± 0.017
16,CTGATGTGTA,0.965 ± 0.059
17,GAGTGCAGGT,1.01 ± 0.015
18,CTGTGGTGGG,0.996 ± 0.051
19,AGCAGTTTAC,1.17 ± 0.054
20,GATAGGATGG,0.9842 ± 0.0027
21,GCATGCGCTC,1.05 ± 0.052
22,CCATCATTTT,0.99 ± 0.041
23,TTTTACTTAA,1.28 ± 0.37

# — the supplement of paper PMC10126150
